Experiment [1] has as its target T1, cynomolgus monkey IL-34 (cynomolgus monkey, UniProt G7Q1L3 21-242).
T1 construct: Biotinylated in the displacement ELISA; also called cyno IL-34
T1 sequence: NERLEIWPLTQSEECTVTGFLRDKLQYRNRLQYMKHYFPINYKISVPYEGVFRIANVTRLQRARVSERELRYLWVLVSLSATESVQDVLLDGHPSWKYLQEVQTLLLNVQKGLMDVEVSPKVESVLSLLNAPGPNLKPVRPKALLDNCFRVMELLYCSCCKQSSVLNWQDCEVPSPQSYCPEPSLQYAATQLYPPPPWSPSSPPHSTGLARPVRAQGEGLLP
As to the kind of experiment: competition ELISA; displacement of biotinylated cyno IL-34 from plate-bound cynomolgus CSF1R ECD-Fc. As for the experimental part: (§1) CSF1R extracellular domain proteins (hCSF1R_Fc commercially available from R&D Cat #329-MR, cynomolgus CSF1R ECD-Fc (AAA is a linker between CSF1R extracellular domain and Fc) (SEQ ID NO: 34)) can be bound to an ELISA plate at concentrations of 30 nM in order to capture soluble biotinylated IL-34 and allowed to bind for one hour. After washing and blocking plate, biotinylated IL-34 may be added, then detected via streptavidin conjugated peroxidase. Concentrations of labeled IL-34 near the 80% binding level (EC₈₀) (3.7 nM) may be used in conjunction with a range of antibody concentrations (0-100 nM) to determine concentration of antibody required to displace IL-34 from CSF1R. After 1 hr incubation, IL-34 bound to CSF1R is detected via streptavidin conjugated peroxidase. The antibodies are assayed (n=2) and the average and standard deviation at each concentration are calculated. The potency of an antibody to displace IL-34 from CSF1R is reported as IC₅₀ (nM) with the calculated confidence interval (CI) in Table 4 and Table 5.

Experiment [2] addresses T2, human IL-34 (human, UniProt Q6ZMJ4 21-242).
T2 construct: It was biotinylated in the displacement ELISA; also called hIL-34; h IL-34
T2 sequence: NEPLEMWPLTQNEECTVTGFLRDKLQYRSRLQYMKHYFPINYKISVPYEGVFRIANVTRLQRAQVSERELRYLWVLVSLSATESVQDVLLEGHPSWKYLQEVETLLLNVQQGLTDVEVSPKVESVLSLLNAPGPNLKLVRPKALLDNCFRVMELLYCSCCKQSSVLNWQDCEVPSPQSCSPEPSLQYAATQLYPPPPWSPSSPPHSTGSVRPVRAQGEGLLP
As to the kind of experiment: competition ELISA; displacement of biotinylated human IL-34 (3.7 nM) from plate-bound hCSF1R_Fc. As for the experimental part:
as §1
Background: In an ELISA, binding on a coated surface is turned into a signal by an enzyme label.

Experiment [3] has as its target T2, human IL-34. As to the kind of experiment: cell-based or functional assay.
Experiment [4] concerns the target T2, human IL-34. As to the kind of experiment: SPR, BIAcore 8K, 37 C; antibody captured on Protein A chip, IL-34 in flow; 1:1 fit; average of at least three experiments. As for the experimental part: (§2) Binding affinity of anti-IL-34 monoclonal antibodies of the present disclosure to human and/or cynomolgus monkey (cyno) IL-34 may be determined by methods known in the art. […] For each cycle, 200 μL IL-34 is flowed over the immobilized antibody at 100 μL/minute, and then dissociated for 20 minutes. The chip surface is regenerated with 50 μL of glycine buffer at pH 1.5 at a flow rate of 100 μL/minute. The data are fit to a 1:1 Langmiur binding mode to derive kon, koff and to calculate KD.
(In general: In SPR one partner is held on a chip, and binding of the other changes the refractive index at the surface.)

In experiment [5] the target is T1, cynomolgus monkey IL-34. Described as above. On the procedure: as §2

By IC50 is commonly meant the point on the concentration scale where inhibition reaches its midpoint. As usually defined, the Kd is a measure of binding affinity in units of concentration. Broadly, the koff is the rate constant with which the complex falls apart. As usually defined, the kon is the second-order rate constant of association.

B1: Antibody 1 (antibody, human IgG4 S228P, kappa, F234A L235A, V domains shown)
VH: EVQLLESGGGLVQPGGSLRLSCAASGFAFSNYAMSWVRQAPGKGLEWVSAISASGGKTYYADSVKGRFTISRDNSKNTLYLQMNSLRAEDTAVYYCAKRGYLWHAFDHWGRGTLVTVSS
VL: EIVLTQSPGTLSLSPGERATLSCRASQSVYSSYLAWYQQKPGQAPRLLIYGASSRATGIPDRFSGSGSGTDFTLTISRLEPEDFAVYYCQVVGSSPPFTFGGGTKVEIKR
notes: Human anti-human IL-34 antibody; IgG4 PAA hinge/Fc without the C-terminal lysine; also called Exemplified Antibody 1; exemplified antibody 1
In the experiment with cynomolgus monkey IL-34 [1], B1 returned an IC50 of 1.41 nM. In the experiment with human IL-34 [2], this molecule yielded an IC50 of 0.0657 nM. In addition, in the experiment with human IL-34 [3], the “IC50 (ug/ml), neutralization of human IL-34 (100 ng/ml) induced luciferase reporter activity in hCSF1R expressing 293 SRE cells” value stood at 0.0533 µg/mL. In the experiment with human IL-34 [4], this molecule yielded a Kd of 0.0338 nM, a koff of 0.00019 s⁻¹ and a kon of 5.6e+06 M⁻¹ s⁻¹. For the same molecule, in the experiment with cynomolgus monkey IL-34 [5], binding was characterised by a dissociation constant (Kd) of 0.039 nM, the koff turned out to be 0.00031 s⁻¹ and the on-rate (kon) came out at 8.1e+06 M⁻¹ s⁻¹.

The record behind these values is patent US20260125460A1 (Eli Lilly, published 2026).
